Data on four molecules can be found in patent US20190055556A1 (Stanford University, published 2019).

The labels stand for the following.
B1: SPARC-like protein 1 (SPARCL1) (other, human, UniProt Q14515 17-664, looked up)
chain: IPTNARLLSDHSKPTAETVAPDNTAIPSLRAEAEENEKETAVSTEDDSHHKAEKSSVLKSKEESHEQSAEQGKSSSQELGLKDQEDSDGHLSVNLEYAPTEGTLDIKEDMSEPQEKKLSENTDFLAPGVSSFTDSNQQESITKREENQEQPRNYSHHQLNRSSKHSQGLRDQGNQEQDPNISNGEEEEEKEPGEVGTHNDNQERKTELPREHANSKQEEDNTQSDDILEESDQPTQVSKMQEDEFDQGNQEQEDNSNAEMEEENASNVNKHIQETEWQSQEGKTGLEAISNHKETEEKTVSEALLMEPTDDGNTTPRNHGVDDDGDDDGDDGGTDGPRHSASDDYFIPSQAFLEAERAQSIAYHLKIEEQREKVHENENIGTTEPGEHQEAKKAENSSNEEETSSEGNMRVHAVDSCMSFQCKRGHICKADQQGKPHCVCQDPVTCPPTKPLDQVCGTDNQTYASSCHLFATKCRLEGTKKGHQLQLDYFGACKSIPTCTDFEVIQFPLRMRDWLKNILMQLYEANSEHAGYLNEKQRNKVKKIYLDEKRLLAGDHPIDLLLRDFKKNYHMYVYPVHWQFSELDQHPMDRVLTHSELAPLRASLVPMEHCITRFFEECDPNKDKHITLKEWGHCFGIKEEDIDENLLF
notes: Endogenous protein in SVZ hNPC conditioned media
B4: insulin-like growth factor binding protein 2 (IGFBP2) (other, human, UniProt P18065 36-325, looked up)
chain: AEVLFRCPPCTPERLAACGPPPVAPPAAVAAVAGGARMPCAELVREPGCGCCSVCARLEGEACGVYTPRCGQGLRCYPHPGSELPLQALVMGEGTCEKRRDAEYGASPEQVADNGDDHSEGGLVENHVDSTMNMLGGGGSAGRKPLKSGMKELAVFREKVTEQHRQMGKGGKHHLGLEEPKKLRPPPARTPCQQELDQVLERISTMRLPDERGPLEHLYSLHIPNCDKHGLYNLKQCKMSLNGQRGECWCVNPNTGKLIQGAPTIRGDPECHLFYNEQQEARGVHTQRMQ
notes: Control protein of the pull-down assay

Experiment in all cases: co-immunoprecipitation from SVZ hNPC conditioned media, Western blot
Background: Immunoblotting shows a protein as a band on a membrane.

Test [1] concerns the target T1, brevican (BCAN) (human, UniProt Q96GW7 23-911, limits assumed).
T1 construct: Control protein of the pull-down assay
T1 sequence (looked up): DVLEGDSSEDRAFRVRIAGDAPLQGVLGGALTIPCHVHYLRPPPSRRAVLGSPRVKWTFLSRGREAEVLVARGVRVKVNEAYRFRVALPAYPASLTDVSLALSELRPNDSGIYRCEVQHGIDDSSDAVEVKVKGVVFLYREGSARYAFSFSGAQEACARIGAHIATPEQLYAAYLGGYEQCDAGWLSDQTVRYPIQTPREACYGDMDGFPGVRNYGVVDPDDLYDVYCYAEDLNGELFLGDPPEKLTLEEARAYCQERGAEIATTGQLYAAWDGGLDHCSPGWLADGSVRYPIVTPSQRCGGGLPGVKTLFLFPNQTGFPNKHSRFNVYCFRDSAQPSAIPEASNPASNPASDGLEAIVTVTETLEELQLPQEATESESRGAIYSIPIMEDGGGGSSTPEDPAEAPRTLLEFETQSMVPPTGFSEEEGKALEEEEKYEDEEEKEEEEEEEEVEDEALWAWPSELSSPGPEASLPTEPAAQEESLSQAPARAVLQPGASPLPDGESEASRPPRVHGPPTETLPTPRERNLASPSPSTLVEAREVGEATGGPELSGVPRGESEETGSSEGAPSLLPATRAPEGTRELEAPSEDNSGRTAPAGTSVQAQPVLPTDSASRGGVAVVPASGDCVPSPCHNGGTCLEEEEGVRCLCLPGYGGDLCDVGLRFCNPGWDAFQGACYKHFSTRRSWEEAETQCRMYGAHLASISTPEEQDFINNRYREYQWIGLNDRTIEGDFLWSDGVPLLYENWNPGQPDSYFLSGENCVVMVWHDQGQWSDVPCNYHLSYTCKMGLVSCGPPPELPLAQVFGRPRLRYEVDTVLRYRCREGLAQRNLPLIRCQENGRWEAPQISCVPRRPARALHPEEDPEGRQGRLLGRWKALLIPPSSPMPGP
Here is the method: (§1) To assess the specificity of the pull-down assay, three control proteins also present in SVZ hNPC CM: 78 kDa glucose-regulated protein (GRP78), insulin-like growth factor binding protein 2 (IGFBP2), and brevican (BCAN), were immunoprecipitated and were not found to copurify with any of the four proteins (FIG. 4D).
(§2) Immunoprecipitation reactions were conducted using the Pierce Crosslink Magnetic IP/Co-IP Kit (Thermo Scientific, Waltham, Mass.). 25 μL of Pierce Protein A/G Magnetic Beads per reaction were rinsed and incubated with 5 μg of antibody on a rotating platform for 15 minutes at room temperature. Antibodies used were: mouse anti-pleiotrophin (Santa Cruz Biotechnology, Santa Cruz, Calif.), rabbit anti-SPARC (Santa Cruz Biotechnology, Santa Cruz, Calif.), mouse anti-SPARCL1 (Santa Cruz Biotechnology, Santa Cruz, Calif.), rabbit anti-HSP90B (GeneTex, Irvine, Calif.), rabbit normal IgG (Santa Cruz Biotechnology, Santa Cruz, Calif.), and mouse normal IgG (Santa Cruz Biotechnology, Santa Cruz, Calif.). Beads were rinsed, and subsequently crosslinked to the antibodies using 0.02 mM DSS for 30 minutes at room temperature. Beads were washed and then incubated with a mixed combination of 250 μL neural precursor cell conditioned media and 250 μL IP lysis/wash buffer overnight at 4° C. The following morning, beads were washed, resuspended in Laemmli loading buffer, and boiled at 100° C. for 5 minutes to release the bound antigens from the beads. Samples were loaded immediately onto Western blots for analysis of the bound antigens, or stored at −20° C. for future analysis. For Western blot analysis, 2% of the input conditioned media was loaded, and 5% of the IP bound antigen samples were loaded.

Test [2] has as its target B4. Here is the method:
as §1, §2

The target of test [3] is T2, 78 kDa glucose-regulated protein (GRP78) (human, UniProt P11021 19-654).
T2 construct: Control protein of the pull-down assay
Here is the method:
as §1, §2

Test [4] deals with B1. Here is the method: as §1, §2
Test [5] deals with T3, heat shock protein 90B (HSP90B) (human, UniProt P14625 22-803, limits assumed).
T3 construct: Endogenous protein in SVZ hNPC conditioned media; 'HSP90B' alone is ambiguous
Here is the method:
as §1, §2

T2 sequence (P11021 19-654 limits assumed): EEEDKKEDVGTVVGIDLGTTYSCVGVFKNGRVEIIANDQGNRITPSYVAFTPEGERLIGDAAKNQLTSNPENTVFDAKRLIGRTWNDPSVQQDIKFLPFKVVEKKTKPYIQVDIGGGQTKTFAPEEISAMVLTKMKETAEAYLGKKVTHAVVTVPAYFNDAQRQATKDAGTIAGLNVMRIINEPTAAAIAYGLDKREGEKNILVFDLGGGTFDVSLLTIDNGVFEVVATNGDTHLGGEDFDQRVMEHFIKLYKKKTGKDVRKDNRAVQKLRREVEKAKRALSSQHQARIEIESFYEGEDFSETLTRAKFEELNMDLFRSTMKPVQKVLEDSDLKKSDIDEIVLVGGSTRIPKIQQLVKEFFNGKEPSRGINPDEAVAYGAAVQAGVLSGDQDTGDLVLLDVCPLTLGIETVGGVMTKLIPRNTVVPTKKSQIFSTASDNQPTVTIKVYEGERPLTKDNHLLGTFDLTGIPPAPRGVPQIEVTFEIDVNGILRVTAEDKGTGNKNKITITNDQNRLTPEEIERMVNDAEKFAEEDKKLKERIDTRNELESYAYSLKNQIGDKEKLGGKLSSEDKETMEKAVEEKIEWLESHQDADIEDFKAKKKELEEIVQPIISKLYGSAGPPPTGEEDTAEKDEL
T3 sequence (P14625 22-803 limits assumed): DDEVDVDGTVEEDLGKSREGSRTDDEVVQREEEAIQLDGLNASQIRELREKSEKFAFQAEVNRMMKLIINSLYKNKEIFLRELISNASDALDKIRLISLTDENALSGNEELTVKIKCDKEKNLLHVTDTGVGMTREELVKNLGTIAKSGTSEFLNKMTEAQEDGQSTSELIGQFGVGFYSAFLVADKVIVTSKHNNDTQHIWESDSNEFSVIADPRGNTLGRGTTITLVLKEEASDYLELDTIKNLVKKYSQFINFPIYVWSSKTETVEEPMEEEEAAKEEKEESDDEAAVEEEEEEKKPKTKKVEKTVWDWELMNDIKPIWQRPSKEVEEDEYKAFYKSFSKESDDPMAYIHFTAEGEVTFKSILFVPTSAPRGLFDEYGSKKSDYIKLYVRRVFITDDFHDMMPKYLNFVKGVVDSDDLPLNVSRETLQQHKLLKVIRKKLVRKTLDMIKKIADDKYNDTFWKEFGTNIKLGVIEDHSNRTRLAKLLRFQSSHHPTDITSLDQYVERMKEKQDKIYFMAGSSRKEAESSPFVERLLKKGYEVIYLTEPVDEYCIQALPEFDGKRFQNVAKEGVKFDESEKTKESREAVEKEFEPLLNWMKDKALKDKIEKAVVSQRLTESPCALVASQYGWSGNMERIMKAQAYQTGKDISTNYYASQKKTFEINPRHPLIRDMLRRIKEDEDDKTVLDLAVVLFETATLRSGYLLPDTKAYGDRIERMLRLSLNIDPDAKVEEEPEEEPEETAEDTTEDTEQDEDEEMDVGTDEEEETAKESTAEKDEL

As to B1, the binding result in test [1] is recorded as “no binding”.

B2: secreted protein acidic and rich in cysteine (SPARC) (other, human, UniProt P09486 18-303, looked up)
chain: APQQEALPDETEVVEETVAEVTEVSVGANPVQVEVGEFDDGAEETEEEVVAENPCQNHHCKHGKVCELDENNTPMCVCQDPTSCPAPIGEFEKVCSNDNKTFDSSCHFFATKCTLEGTKKGHKLHLDYIGPCKYIPPCLDSELTEFPLRMRDWLKNVLVTLYERDEDNNLLTEKQKLRVKKIHENEKRLEAGDHPVELLARDFEKNYNMYIFPVHWQFGQLDQHPIDGYLSHTELAPLRAPLIPMEHCTTRFFETCDLDNDKYIALDEWAGCFGIKQKDIDKDLVI
notes: as for B1
Turning to B2, the binding result in test [2] and in test [1] was “no binding” in each case.

B3: pleiotrophin (PTN) (ligand, human, UniProt P21246 33-168, looked up)
chain: GKKEKPEKKVKKSDCGEWQWSVCVPTSGDCGLGTREGTRTGAECKQTMKTQRCKIPCNWKKQFGAECKYQFQAWGECDLNTALKTRTGSLKRALHNAECQKTVTISKPCGKLTKPKPQAESKKKKKEGKKQEKMLD
notes: In the SEC and co-IP experiments this is the endogenous protein in SVZ hNPC conditioned media
For the molecule B3, the binding result in test [3], in test [2] and in test [1] was “no binding” each time.
With B4, the binding result in test [4] and in test [5] was “no binding” each time.
